Source: article PMC4186791

Tests used:
Assay in all cases: two-hybrid; LexA-Ubx variant (pLexA) and B42-partner (pB42) co-transformed into S. cerevisiae EGY48 carrying p8op-LacZ; blue/white colonies on X-gal and liquid β-galactosidase (ONPG) assay after galactose induction at 30°C, reported in Miller units
[1] = target: UbxIVa Pro4 (Drosophila melanogaster)
[2] = target: UbxIb Δ103–216 (Drosophila melanogaster) (UniProt P83949)
[3] = target: UbxIb N103 Pro4 (Drosophila melanogaster) (UniProt P83949)
Chain of UbxIb N103 Pro4 (Drosophila melanogaster) (P83949 other isoform, or with tags, fused parts or gaps amino acids 2–102 removed (N103) | A226P | Q233P): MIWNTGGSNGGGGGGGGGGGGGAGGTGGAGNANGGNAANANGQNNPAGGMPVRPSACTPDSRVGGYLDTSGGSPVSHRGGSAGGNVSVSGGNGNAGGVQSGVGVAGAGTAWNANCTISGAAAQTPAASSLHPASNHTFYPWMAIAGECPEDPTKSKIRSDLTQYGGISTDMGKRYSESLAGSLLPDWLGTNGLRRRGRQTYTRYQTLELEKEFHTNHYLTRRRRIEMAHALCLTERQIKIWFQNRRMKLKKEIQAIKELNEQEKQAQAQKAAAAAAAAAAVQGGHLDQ

Chain of UbxIb Δ103–216 (Drosophila melanogaster) (P83949 other isoform, or with tags, fused parts or gaps mutant): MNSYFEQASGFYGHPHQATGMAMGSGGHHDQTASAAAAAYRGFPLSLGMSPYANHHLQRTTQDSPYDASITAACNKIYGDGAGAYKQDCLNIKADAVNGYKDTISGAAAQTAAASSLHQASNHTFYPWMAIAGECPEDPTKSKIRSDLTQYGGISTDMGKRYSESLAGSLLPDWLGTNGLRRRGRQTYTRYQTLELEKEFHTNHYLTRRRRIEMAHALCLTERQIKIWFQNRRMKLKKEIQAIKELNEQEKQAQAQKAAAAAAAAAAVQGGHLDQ
Chain of Ribosomal protein L22 (P50887 whole entry): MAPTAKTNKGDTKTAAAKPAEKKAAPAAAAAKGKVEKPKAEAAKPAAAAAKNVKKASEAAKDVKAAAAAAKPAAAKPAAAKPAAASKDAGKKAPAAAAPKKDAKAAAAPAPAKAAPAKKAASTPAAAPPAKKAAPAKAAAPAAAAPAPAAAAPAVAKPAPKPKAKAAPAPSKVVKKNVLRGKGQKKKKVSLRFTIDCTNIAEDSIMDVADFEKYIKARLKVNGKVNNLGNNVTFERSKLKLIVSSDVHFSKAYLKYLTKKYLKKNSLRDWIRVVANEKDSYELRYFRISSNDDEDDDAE
Chain of 14-3-3ε (P92177 whole entry): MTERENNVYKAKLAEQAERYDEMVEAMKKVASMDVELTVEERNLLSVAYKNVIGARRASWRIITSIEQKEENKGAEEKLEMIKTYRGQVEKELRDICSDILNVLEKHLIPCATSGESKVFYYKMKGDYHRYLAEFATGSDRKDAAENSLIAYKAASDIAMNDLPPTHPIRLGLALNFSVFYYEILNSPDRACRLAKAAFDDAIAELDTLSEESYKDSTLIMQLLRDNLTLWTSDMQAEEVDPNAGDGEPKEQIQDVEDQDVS
Chain of Dishevelled (P51140 whole entry): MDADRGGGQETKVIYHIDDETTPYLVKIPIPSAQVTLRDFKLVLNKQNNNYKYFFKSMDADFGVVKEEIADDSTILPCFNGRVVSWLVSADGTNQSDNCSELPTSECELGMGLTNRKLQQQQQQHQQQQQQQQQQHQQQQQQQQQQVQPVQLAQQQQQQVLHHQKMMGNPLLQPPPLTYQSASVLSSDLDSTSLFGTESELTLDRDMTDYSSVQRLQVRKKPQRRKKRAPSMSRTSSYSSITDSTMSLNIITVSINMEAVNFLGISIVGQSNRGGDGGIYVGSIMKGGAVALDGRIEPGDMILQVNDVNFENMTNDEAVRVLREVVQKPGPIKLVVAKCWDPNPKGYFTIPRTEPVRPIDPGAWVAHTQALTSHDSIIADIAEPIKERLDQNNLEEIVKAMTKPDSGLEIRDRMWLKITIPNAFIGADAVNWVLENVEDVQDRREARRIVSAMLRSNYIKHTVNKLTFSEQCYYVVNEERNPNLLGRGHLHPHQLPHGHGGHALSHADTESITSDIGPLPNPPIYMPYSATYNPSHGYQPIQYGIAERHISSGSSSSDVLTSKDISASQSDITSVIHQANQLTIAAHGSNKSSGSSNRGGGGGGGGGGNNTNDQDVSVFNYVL

percent of reporter signal lost relative to UbxIb Pro4 [1] [%]	percent of reporter signal lost relative to UbxIb Pro4 [2] [%]	percent of reporter signal lost relative to UbxIb Pro4 [3] [%]	Substance
> 59	–	–	14-3-3ε (from UniProt P92177 1-262) (natural protein)
> 59	–	–	Dishevelled (from UniProt P51140 1-623) (natural protein)
> 59	–	–	Ribosomal protein L22 (from UniProt P50887 1-299) (natural protein)
> 59	> 59	> 59	Apontic (natural protein)
